From article PMC3847324, “Jun dimerization protein 2 is a critical component of the Nrf2/MafK complex regulating the response to ROS homeostasis”

What was measured:
Test in all cases: EMSA; EMSA: 5 ug GST fusion or 10 ng IVT protein, 25 C 30 min; 5% native PAGE in 0.5x TBE at 4 C; binding buffer, salt and pH not given
IVT-JDP2 = target: T1, IVT-JDP2 (mouse, UniProt P97875 1-163); conditions: protein: ivt; chain copies: 2; label: 32P 5' end (T4 kinase) as probe; blunt
T1 sequence: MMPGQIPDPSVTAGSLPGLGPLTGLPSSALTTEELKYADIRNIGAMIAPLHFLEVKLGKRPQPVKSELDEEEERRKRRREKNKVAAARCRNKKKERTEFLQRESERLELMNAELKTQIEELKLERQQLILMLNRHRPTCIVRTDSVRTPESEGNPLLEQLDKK

IVT-MafK = IVT-MafK (rat, UniProt Q8K4B3 1-156); conditions: protein: ivt; chain copies: 2; label: 32P 5' end (T4 kinase) as probe; blunt
Chain of IVT-MafK (Q8K4B3 entry or part of it): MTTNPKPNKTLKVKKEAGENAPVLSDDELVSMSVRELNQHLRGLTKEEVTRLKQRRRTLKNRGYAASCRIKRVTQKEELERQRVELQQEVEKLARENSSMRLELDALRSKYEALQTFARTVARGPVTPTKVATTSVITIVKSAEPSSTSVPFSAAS

GST-JDP2 = target: T2, GST-JDP2 (mouse, UniProt P97875 1-163); conditions: protein: recombinant; tags: GST; chain copies: 2; label: 32P 5' end (T4 kinase) as probe; blunt
T2 sequence: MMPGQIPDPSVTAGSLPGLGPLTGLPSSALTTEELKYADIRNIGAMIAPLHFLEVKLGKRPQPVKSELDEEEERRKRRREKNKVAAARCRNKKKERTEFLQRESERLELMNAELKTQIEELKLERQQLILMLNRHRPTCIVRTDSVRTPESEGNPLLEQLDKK

Measured: binding result

B1: human NQO1-ARE WT (dsDNA)
DNA 1: CAGTCACAGTGACTCAGCAGAATCT
DNA 2: AGATTCTGCTGAGTCACTGTGACTG
binds: IVT-JDP2 | IVT-MafK | GST-JDP2
